Test results published in publication PMC9482650, “Quantitative fragmentomics allow affinity mapping of interactomes” (Nature Communications, 2022).

T1: SYNPO2L, Q9H987
T1 sequence (Q9H987 1-98, limits assumed, looked up): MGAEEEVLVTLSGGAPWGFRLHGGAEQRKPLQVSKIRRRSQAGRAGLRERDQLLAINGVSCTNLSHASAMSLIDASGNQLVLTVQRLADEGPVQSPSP

T2: PDLIM3, Q53GG5
T2 sequence (Q53GG5 1-94, limits assumed, looked up): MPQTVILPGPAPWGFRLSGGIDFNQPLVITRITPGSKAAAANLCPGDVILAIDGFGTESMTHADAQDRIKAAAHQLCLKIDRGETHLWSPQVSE

T3: MPP1, Q00013
T3 sequence (Q00013 66-162, limits assumed, looked up): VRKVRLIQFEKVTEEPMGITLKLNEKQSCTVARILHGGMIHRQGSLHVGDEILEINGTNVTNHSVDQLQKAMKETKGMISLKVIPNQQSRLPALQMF

T4: GRIP1_1, Q9Y3R0
T4 sequence (Q9Y3R0 48-146, limits assumed, looked up): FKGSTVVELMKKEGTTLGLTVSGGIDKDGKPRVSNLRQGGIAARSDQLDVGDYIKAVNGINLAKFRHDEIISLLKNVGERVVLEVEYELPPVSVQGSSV

T5: TJP3_1, O95049
T5 sequence (O95049 6-103, limits assumed, looked up): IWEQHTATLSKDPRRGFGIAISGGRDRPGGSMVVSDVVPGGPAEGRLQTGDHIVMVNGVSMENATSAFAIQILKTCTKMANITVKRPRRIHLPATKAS

T6: GIPC1, O14908
T6 sequence (O14908 128-223, limits assumed, looked up): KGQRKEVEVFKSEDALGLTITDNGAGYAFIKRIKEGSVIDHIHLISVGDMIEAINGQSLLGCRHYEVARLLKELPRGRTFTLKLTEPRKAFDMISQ

T7: MLLT4, P55196
T7 sequence (P55196 1002-1103, limits assumed, looked up): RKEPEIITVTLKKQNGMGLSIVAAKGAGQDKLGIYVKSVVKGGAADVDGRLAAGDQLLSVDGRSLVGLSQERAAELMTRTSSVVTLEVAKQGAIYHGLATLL

T8: NHERF1_1, O14745
T8 sequence (O14745 9-104, limits assumed, looked up): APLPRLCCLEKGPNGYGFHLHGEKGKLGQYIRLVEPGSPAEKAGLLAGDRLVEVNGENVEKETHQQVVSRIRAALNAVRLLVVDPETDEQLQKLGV

T9: MPDZ_2, O75970
T9 sequence (O75970 252-347, limits assumed, looked up): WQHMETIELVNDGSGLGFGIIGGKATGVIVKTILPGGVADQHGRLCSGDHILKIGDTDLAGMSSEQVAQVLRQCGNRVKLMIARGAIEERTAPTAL

T10: MPDZ_7, O75970
T10 sequence (O75970 1146-1253, limits assumed, looked up): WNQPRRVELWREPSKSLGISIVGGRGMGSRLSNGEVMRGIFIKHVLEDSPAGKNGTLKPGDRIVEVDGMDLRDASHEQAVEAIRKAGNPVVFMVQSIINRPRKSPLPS

T11: SHROOM2, Q13796
T11 sequence (Q13796 21-118, limits assumed, looked up): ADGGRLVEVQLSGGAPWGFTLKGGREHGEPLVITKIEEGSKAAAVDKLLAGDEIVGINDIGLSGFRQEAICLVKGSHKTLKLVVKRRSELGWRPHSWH

T12: MAGI2_1, Q86UL8
T12 sequence (Q86UL8 12-111, limits assumed, looked up): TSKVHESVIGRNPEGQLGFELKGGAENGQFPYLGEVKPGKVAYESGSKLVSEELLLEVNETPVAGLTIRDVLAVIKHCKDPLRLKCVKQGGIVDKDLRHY


These binders were tested against Q9P227 (assay: holdup assay). Settings: plain residues with an end cap or a label only (N-terminal biotin on a linker: ttds).
Design: key: below the threshold = too weak to quantify, mostly under pKd 3.1 to 4
HRTCYLVTQL [ASIC3, Q9UHC3] was tested, and the pKd was “below the threshold”. QPGTPTRTAV [MAP2K2, P36507] was tested, and the pKd was “below the threshold”.

These binders were tested against Q96JB8 (assay: holdup assay). Settings: plain residues with an end cap or a label only (N-terminal biotin on a linker: ttds).
Design: key: below the threshold = too weak to quantify, mostly under pKd 3.1 to 4
HRTCYLVTQL [ASIC3, Q9UHC3] was tested, and the pKd was “below the threshold”. With QPGTPTRTAV [MAP2K2, P36507] the pKd was “below the threshold”.

What follows are binders tested against Q13368 (assay: holdup assay). Settings: plain residues with an end cap or a label only (N-terminal biotin on a linker: ttds).
Design: key: below the threshold = too weak to quantify, mostly under pKd 3.1 to 4
HRTCYLVTQL [ASIC3, Q9UHC3] was tested, and the pKd was “below the threshold”. For QPGTPTRTAV [MAP2K2, P36507], the pKd was “below the threshold”.

What follows are binders tested against T1, SYNPO2L, Q9H987 (assay: holdup assay). Settings: plain residues with an end cap or a label only (N-terminal biotin on a linker: ttds).
Design: key: below the threshold = too weak to quantify, mostly under pKd 3.1 to 4
HRTCYLVTQL [ASIC3, Q9UHC3] was tested, and the pKd was “below the threshold”. For QPGTPTRTAV [MAP2K2, P36507], the pKd was “below the threshold”.

The binders below were run against T2, PDLIM3, Q53GG5 (assay: holdup assay). Settings: plain residues with an end cap or a label only (N-terminal biotin on a linker: ttds).
Design: key: below the threshold = too weak to quantify, mostly under pKd 3.1 to 4
For HRTCYLVTQL [ASIC3, Q9UHC3], the pKd was “below the threshold”. For QPGTPTRTAV [MAP2K2, P36507], the pKd was “below the threshold”.

Each binder was assayed against Q9UDY2 (assay: holdup assay). Settings: plain residues with an end cap or a label only (N-terminal biotin on a linker: ttds).
Design: key: below the threshold = too weak to quantify, mostly under pKd 3.1 to 4
HRTCYLVTQL [ASIC3, Q9UHC3] was tested, and the pKd was “below the threshold”. In the case of QPGTPTRTAV [MAP2K2, P36507], the pKd is reported as “below the threshold”.

What follows are binders tested against T3, MPP1, Q00013 (assay: holdup assay). Settings: plain residues with an end cap or a label only (N-terminal biotin on a linker: ttds).
Design: key: below the threshold = too weak to quantify, mostly under pKd 3.1 to 4
HRTCYLVTQL [ASIC3, Q9UHC3] was tested, and the pKd was 4.4. Work on QPGTPTRTAV [MAP2K2, P36507] yielded a pKd of 4.12.

Each binder was assayed against Q9NR12 (assay: holdup assay). Settings: plain residues with an end cap or a label only (N-terminal biotin on a linker: ttds).
Design: key: below the threshold = too weak to quantify, mostly under pKd 3.1 to 4
With HRTCYLVTQL [ASIC3, Q9UHC3] the pKd was “below the threshold”. In the case of QPGTPTRTAV [MAP2K2, P36507], the pKd is reported as “below the threshold”.

These binders were tested against Q6ZWJ1 (assay: holdup assay). Settings: plain residues with an end cap or a label only (N-terminal biotin on a linker: ttds).
Design: key: below the threshold = too weak to quantify, mostly under pKd 3.1 to 4
With HRTCYLVTQL [ASIC3, Q9UHC3] the pKd was “below the threshold”. In the case of QPGTPTRTAV [MAP2K2, P36507], the pKd is reported as “below the threshold”.

These binders were tested against Q5TCQ9 (assay: holdup assay). Settings: plain residues with an end cap or a label only (N-terminal biotin on a linker: ttds).
Design: key: below the threshold = too weak to quantify, mostly under pKd 3.1 to 4
HRTCYLVTQL [ASIC3, Q9UHC3] was tested, and the pKd was “below the threshold”. In the case of QPGTPTRTAV [MAP2K2, P36507], the pKd is reported as “below the threshold”.

What follows are binders tested against T4, GRIP1_1, Q9Y3R0 (assay: holdup assay). Settings: plain residues with an end cap or a label only (N-terminal biotin on a linker: ttds).
Design: key: below the threshold = too weak to quantify, mostly under pKd 3.1 to 4
HRTCYLVTQL [ASIC3, Q9UHC3] was tested, and the pKd was 4.31. With QPGTPTRTAV [MAP2K2, P36507] the pKd was “below the threshold”.

Each binder was assayed against O15021 (assay: holdup assay). Settings: plain residues with an end cap or a label only (N-terminal biotin on a linker: ttds).
Design: key: below the threshold = too weak to quantify, mostly under pKd 3.1 to 4
HRTCYLVTQL [ASIC3, Q9UHC3] was tested, and the pKd was “below the threshold”. QPGTPTRTAV [MAP2K2, P36507] was tested, and the pKd was “below the threshold”.

The binders below were run against T5, TJP3_1, O95049 (assay: holdup assay). Settings: plain residues with an end cap or a label only (N-terminal biotin on a linker: ttds).
Design: key: below the threshold = too weak to quantify, mostly under pKd 3.1 to 4
With HRTCYLVTQL [ASIC3, Q9UHC3] the pKd was “below the threshold”. QPGTPTRTAV [MAP2K2, P36507] was tested, and the pKd was “below the threshold”.

Each binder was assayed against Q96HC4 (assay: holdup assay). Settings: plain residues with an end cap or a label only (N-terminal biotin on a linker: ttds).
Design: key: below the threshold = too weak to quantify, mostly under pKd 3.1 to 4
In the case of HRTCYLVTQL [ASIC3, Q9UHC3], the pKd is reported as “below the threshold”. With QPGTPTRTAV [MAP2K2, P36507] the pKd was “below the threshold”.

What follows are binders tested against O43166 (assay: holdup assay). Settings: plain residues with an end cap or a label only (N-terminal biotin on a linker: ttds).
Design: key: below the threshold = too weak to quantify, mostly under pKd 3.1 to 4
With HRTCYLVTQL [ASIC3, Q9UHC3] the pKd was “below the threshold”. QPGTPTRTAV [MAP2K2, P36507] was tested, and the pKd was “below the threshold”.

These binders were tested against T6, GIPC1, O14908 (assay: holdup assay). Settings: plain residues with an end cap or a label only (N-terminal biotin on a linker: ttds).
Design: key: below the threshold = too weak to quantify, mostly under pKd 3.1 to 4
For HRTCYLVTQL [ASIC3, Q9UHC3], the pKd was “below the threshold”. With QPGTPTRTAV [MAP2K2, P36507] the pKd was “below the threshold”.

The binders below were run against Q9C0E4 (assay: holdup assay). Settings: plain residues with an end cap or a label only (N-terminal biotin on a linker: ttds).
Design: key: below the threshold = too weak to quantify, mostly under pKd 3.1 to 4
HRTCYLVTQL [ASIC3, Q9UHC3] was tested, and the pKd was “below the threshold”. With QPGTPTRTAV [MAP2K2, P36507] the pKd was “below the threshold”.

What follows are binders tested against T7, MLLT4, P55196 (assay: holdup assay). Settings: plain residues with an end cap or a label only (N-terminal biotin on a linker: ttds).
Design: key: below the threshold = too weak to quantify, mostly under pKd 3.1 to 4
With HRTCYLVTQL [ASIC3, Q9UHC3] the pKd was “below the threshold”. QPGTPTRTAV [MAP2K2, P36507] was tested, and the pKd was “below the threshold”.

The binders below were run against Q96SB3 (assay: holdup assay). Settings: plain residues with an end cap or a label only (N-terminal biotin on a linker: ttds).
Design: key: below the threshold = too weak to quantify, mostly under pKd 3.1 to 4
HRTCYLVTQL [ASIC3, Q9UHC3] was tested, and the pKd was “below the threshold”. QPGTPTRTAV [MAP2K2, P36507] was tested, and the pKd was “below the threshold”.

What follows are binders tested against T8, NHERF1_1, O14745 (assay: holdup assay). Settings: plain residues with an end cap or a label only (N-terminal biotin on a linker: ttds).
Design: key: below the threshold = too weak to quantify, mostly under pKd 3.1 to 4
Work on HRTCYLVTQL [ASIC3, Q9UHC3] yielded a pKd of 5.23. For QPGTPTRTAV [MAP2K2, P36507], the pKd was “below the threshold”.

The binders below were run against T9, MPDZ_2, O75970 (assay: holdup assay). Settings: plain residues with an end cap or a label only (N-terminal biotin on a linker: ttds).
Design: key: below the threshold = too weak to quantify, mostly under pKd 3.1 to 4
For HRTCYLVTQL [ASIC3, Q9UHC3], the pKd was “below the threshold”. With QPGTPTRTAV [MAP2K2, P36507] the pKd was “below the threshold”.

These binders were tested against Q9H190 (assay: holdup assay). Settings: plain residues with an end cap or a label only (N-terminal biotin on a linker: ttds).
Design: key: below the threshold = too weak to quantify, mostly under pKd 3.1 to 4
For HRTCYLVTQL [ASIC3, Q9UHC3], the pKd was “below the threshold”. With QPGTPTRTAV [MAP2K2, P36507] the pKd was “below the threshold”.

The binders below were run against Q96JY6 (assay: holdup assay). Settings: plain residues with an end cap or a label only (N-terminal biotin on a linker: ttds).
Design: key: below the threshold = too weak to quantify, mostly under pKd 3.1 to 4
In the case of HRTCYLVTQL [ASIC3, Q9UHC3], the pKd is reported as “below the threshold”. For QPGTPTRTAV [MAP2K2, P36507], the pKd was “below the threshold”.

Each binder was assayed against T10, MPDZ_7, O75970 (assay: holdup assay). Settings: plain residues with an end cap or a label only (N-terminal biotin on a linker: ttds).
Design: key: below the threshold = too weak to quantify, mostly under pKd 3.1 to 4
HRTCYLVTQL [ASIC3, Q9UHC3] was tested, and the pKd was 4.73. In the case of QPGTPTRTAV [MAP2K2, P36507], the pKd is reported as “below the threshold”.

Each binder was assayed against LIMK1, P53667 (assay: holdup assay). Settings: plain residues with an end cap or a label only (N-terminal biotin on a linker: ttds).
LIMK1, P53667, sequence (P53667 155-268): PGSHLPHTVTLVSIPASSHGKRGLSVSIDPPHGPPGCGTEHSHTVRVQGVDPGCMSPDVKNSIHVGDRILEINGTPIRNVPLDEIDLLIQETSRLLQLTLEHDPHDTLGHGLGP
Design: key: below the threshold = too weak to quantify, mostly under pKd 3.1 to 4
In the case of QPGTPTRTAV [MAP2K2, P36507], the pKd is reported as 4.2.

What follows are binders tested against T11, SHROOM2, Q13796 (assay: holdup assay). Settings: plain residues with an end cap or a label only (N-terminal biotin on a linker: ttds).
Design: key: below the threshold = too weak to quantify, mostly under pKd 3.1 to 4
HRTCYLVTQL [ASIC3, Q9UHC3] was tested, and the pKd was “below the threshold”. QPGTPTRTAV [MAP2K2, P36507] was tested, and the pKd was “below the threshold”.

What follows are binders tested against T12, MAGI2_1, Q86UL8 (assay: holdup assay). Settings: plain residues with an end cap or a label only (N-terminal biotin on a linker: ttds).
Design: key: below the threshold = too weak to quantify, mostly under pKd 3.1 to 4
With HRTCYLVTQL [ASIC3, Q9UHC3] the pKd was 4.01. With QPGTPTRTAV [MAP2K2, P36507] the pKd was “below the threshold”.
